Reference: PMC2664468

Experiments:
[1] = biological target: endogenous vCD30 protein secreted during ECTV infection (Ectromelia virus (ECTV Naval.Cam)); experiment: non-reducing SDS-PAGE and Western blot
[2] = biological target: His-tagged ECTV vCD30 protein (vCD30His) (Ectromelia virus (ECTV)); experiment: non-reducing SDS-PAGE; purified vCD30His from baculovirus; data not shown

Substance	stoichiometry N [1]	stoichiometry N [2]
endogenous vCD30 protein secreted during ECTV infection (natural protein)	3	
His-tagged ECTV vCD30 protein (vCD30His) (natural protein)		3
